Source: the supplement of paper PMC11908140

B1: library; numbered along this chain (parent)
chain: MRKPRAAVGSGHRKQAASQEGRQKHAKNNSQAKPSACDGLARQPEEVVLQASVSSYHLFRDVAEVTAFRGSLLSWYDQEKRDLPWRRRAEDEMDLDRRAYAVWVSEVMLQQTQVATVINYYTGWMQKWPTLQDLASASLEEVNQLWAGLGYYSRGRRLQEGARKVVEELGGHMPRTAETLQQLLPGVGRYTAGAIASIAFGQATGVVDGNVARVLCRVRAIGADPSSTLVSQQLWGLAQQLVDPARPGDFNQAAMELGATVCTPQRPLCSQCPVESLCRARQRVEQEQLLASGSLSGSPDVEECAPNTGQCHLCLPPSEPWDQTLGVVNFPRKASRKPPREESSATCVLEQPGALGAQILLVQRPNSGLLAGLWEFPSVTWEPSEQLQRKALLQELQRWAGPLPATHLRHLGEVVHTFSHIKLTYQVYGLALEGQTPVTTVPPGARWLTQEEFHTAAVSTAMKKVFRVYQGQQPGTCMGSKRSQVSSPCSRKKPRMGQQVLDNFFRSHISTDAHSLNSAAQ

Variants of: B1
Assay: 8OG:A repair function score (normalized; synonymous = 0, nonsense = -1) (normalized log-likelihood score); higher = more repair activity (WT-like)
Details: with 8OG:A DNA repair reporter (GFP) in HEK-293 MUTYH KO cells
Protocol: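 Saturation mutagenesis (NNN codon scan) of the MUTYH cDNA (521-aa nuclear isoform NM_001048174.1 / NP_001041639), stably expressed under doxycycline induction in HEK-293 MUTYH knockout cells. Cells were co-transfected with an 8OG:A-bearing GFP repair reporter plus mCherry and sorted 72 h later into GFP+ and GFP− bins, three replicates per tile. The Rosace log2 enrichment (GFP+ vs GFP−) was converted per tile to a normalized function score with synonymous variants centered at 0 and nonsense variants (codons 1-471) at -1; low-abundance variants were removed.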

| Variant | 8OG:A repair function score |
| --- | --- |
| MRKPRAAVGSGHRKQAASQEGRQKHAKNNSQAKHSACDGLARQPEEVVLQASVSSYHLFRDVAEVTAFRGSLLSWYDQEKRDLPWRRRAEDEMDLDRRAYAVWVSEVMLQQTQVATVINYYTGWMQKWPTLQDLASASLEEVNQLWAGLGYYSRGRRLQEGARKVVEELGGHMPRTAETLQQLLPGVGRYTAGAIASIAFGQATGVVDGNVARVLCRVRAIGADPSSTLVSQQLWGLAQQLVDPARPGDFNQAAMELGATVCTPQRPLCSQCPVESLCRARQRVEQEQLLASGSLSGSPDVEECAPNTGQCHLCLPPSEPWDQTLGVVNFPRKASRKPPREESSATCVLEQPGALGAQILLVQRPNSGLLAGLWEFPSVTWEPSEQLQRKALLQELQRWAGPLPATHLRHLGEVVHTFSHIKLTYQVYGLALEGQTPVTTVPPGARWLTQEEFHTAAVSTAMKKVFRVYQGQQPGTCMGSKRSQVSSPCSRKKPRMGQQVLDNFFRSHISTDAHSLNSAAQ [P34H] | 0.142 |
| MRKPRAAVGSGHRKQAASQEGRQKHAKNNSQAKLSACDGLARQPEEVVLQASVSSYHLFRDVAEVTAFRGSLLSWYDQEKRDLPWRRRAEDEMDLDRRAYAVWVSEVMLQQTQVATVINYYTGWMQKWPTLQDLASASLEEVNQLWAGLGYYSRGRRLQEGARKVVEELGGHMPRTAETLQQLLPGVGRYTAGAIASIAFGQATGVVDGNVARVLCRVRAIGADPSSTLVSQQLWGLAQQLVDPARPGDFNQAAMELGATVCTPQRPLCSQCPVESLCRARQRVEQEQLLASGSLSGSPDVEECAPNTGQCHLCLPPSEPWDQTLGVVNFPRKASRKPPREESSATCVLEQPGALGAQILLVQRPNSGLLAGLWEFPSVTWEPSEQLQRKALLQELQRWAGPLPATHLRHLGEVVHTFSHIKLTYQVYGLALEGQTPVTTVPPGARWLTQEEFHTAAVSTAMKKVFRVYQGQQPGTCMGSKRSQVSSPCSRKKPRMGQQVLDNFFRSHISTDAHSLNSAAQ [P34L] | 0.131 |
| MRKPRAAVGSGHRKQAASQEGRQKHAKNNSQAKMSACDGLARQPEEVVLQASVSSYHLFRDVAEVTAFRGSLLSWYDQEKRDLPWRRRAEDEMDLDRRAYAVWVSEVMLQQTQVATVINYYTGWMQKWPTLQDLASASLEEVNQLWAGLGYYSRGRRLQEGARKVVEELGGHMPRTAETLQQLLPGVGRYTAGAIASIAFGQATGVVDGNVARVLCRVRAIGADPSSTLVSQQLWGLAQQLVDPARPGDFNQAAMELGATVCTPQRPLCSQCPVESLCRARQRVEQEQLLASGSLSGSPDVEECAPNTGQCHLCLPPSEPWDQTLGVVNFPRKASRKPPREESSATCVLEQPGALGAQILLVQRPNSGLLAGLWEFPSVTWEPSEQLQRKALLQELQRWAGPLPATHLRHLGEVVHTFSHIKLTYQVYGLALEGQTPVTTVPPGARWLTQEEFHTAAVSTAMKKVFRVYQGQQPGTCMGSKRSQVSSPCSRKKPRMGQQVLDNFFRSHISTDAHSLNSAAQ [P34M] | 0.176 |
| MRKPRAAVGSGHRKQAASQEGRQKHAKNNSQAKKSACDGLARQPEEVVLQASVSSYHLFRDVAEVTAFRGSLLSWYDQEKRDLPWRRRAEDEMDLDRRAYAVWVSEVMLQQTQVATVINYYTGWMQKWPTLQDLASASLEEVNQLWAGLGYYSRGRRLQEGARKVVEELGGHMPRTAETLQQLLPGVGRYTAGAIASIAFGQATGVVDGNVARVLCRVRAIGADPSSTLVSQQLWGLAQQLVDPARPGDFNQAAMELGATVCTPQRPLCSQCPVESLCRARQRVEQEQLLASGSLSGSPDVEECAPNTGQCHLCLPPSEPWDQTLGVVNFPRKASRKPPREESSATCVLEQPGALGAQILLVQRPNSGLLAGLWEFPSVTWEPSEQLQRKALLQELQRWAGPLPATHLRHLGEVVHTFSHIKLTYQVYGLALEGQTPVTTVPPGARWLTQEEFHTAAVSTAMKKVFRVYQGQQPGTCMGSKRSQVSSPCSRKKPRMGQQVLDNFFRSHISTDAHSLNSAAQ [P34K] | 0.166 |
| MRKPRAAVGSGHRKQAASQEGRQKHAKNNSQAKISACDGLARQPEEVVLQASVSSYHLFRDVAEVTAFRGSLLSWYDQEKRDLPWRRRAEDEMDLDRRAYAVWVSEVMLQQTQVATVINYYTGWMQKWPTLQDLASASLEEVNQLWAGLGYYSRGRRLQEGARKVVEELGGHMPRTAETLQQLLPGVGRYTAGAIASIAFGQATGVVDGNVARVLCRVRAIGADPSSTLVSQQLWGLAQQLVDPARPGDFNQAAMELGATVCTPQRPLCSQCPVESLCRARQRVEQEQLLASGSLSGSPDVEECAPNTGQCHLCLPPSEPWDQTLGVVNFPRKASRKPPREESSATCVLEQPGALGAQILLVQRPNSGLLAGLWEFPSVTWEPSEQLQRKALLQELQRWAGPLPATHLRHLGEVVHTFSHIKLTYQVYGLALEGQTPVTTVPPGARWLTQEEFHTAAVSTAMKKVFRVYQGQQPGTCMGSKRSQVSSPCSRKKPRMGQQVLDNFFRSHISTDAHSLNSAAQ [P34I] | -0.0342 |
| MRKPRAAVGSGHRKQAASQEGRQKHAKNNSQAKNSACDGLARQPEEVVLQASVSSYHLFRDVAEVTAFRGSLLSWYDQEKRDLPWRRRAEDEMDLDRRAYAVWVSEVMLQQTQVATVINYYTGWMQKWPTLQDLASASLEEVNQLWAGLGYYSRGRRLQEGARKVVEELGGHMPRTAETLQQLLPGVGRYTAGAIASIAFGQATGVVDGNVARVLCRVRAIGADPSSTLVSQQLWGLAQQLVDPARPGDFNQAAMELGATVCTPQRPLCSQCPVESLCRARQRVEQEQLLASGSLSGSPDVEECAPNTGQCHLCLPPSEPWDQTLGVVNFPRKASRKPPREESSATCVLEQPGALGAQILLVQRPNSGLLAGLWEFPSVTWEPSEQLQRKALLQELQRWAGPLPATHLRHLGEVVHTFSHIKLTYQVYGLALEGQTPVTTVPPGARWLTQEEFHTAAVSTAMKKVFRVYQGQQPGTCMGSKRSQVSSPCSRKKPRMGQQVLDNFFRSHISTDAHSLNSAAQ [P34N] | 0.0767 |
